Target: human EGF receptor 1 (human, UniProt P00533 25-1210)
Test: cell-based or functional assay

B1: Ex3 scFv-Fc, IgG-type bispecific antibody of OHL-Fc and 5HL-CL (bispecific antibody)
heavy: not shown
light: QVQLVQSGAEVKKPGASVKVSCKASGYTFTSYWMHWVRQAPGQGLEWMGNIYPGSGGTNYAEKFKNRVTMTRDTSISTAYMELSRLRSDDTAVYYCARSGGPYFFDYWGQGTLVTVSSAGGGGSGGGGSGGGGSDIVMTQSPLSLPVTPGEPASISCRSSQNIVHNNGITYLEWYLQKPGQSPQLLIYKVSDRFSGVPDRFSGSGSGTDFTLKISRVEAEDVGVYYCFQGSHIPPTFGQGTKVEIKRTVAAPSVFIFPPSDEQLKSGTASVVCLLNNFYPREAKVQWKVDNALQSGNSQESVTEQDSKDSTYSLSSTLTLSKADYEKHKVYACEVTHQGLSSPVTKSFNRGEC
  cytotoxicity, 51Cr release assay (Colo-Tc, EGFR/CHO and CHO cells): ~0.002 fold of the concentration of Ex3
